B1: Inter-α-trypsin inhibitor heavy chain H2: plasma protein bound to fibrils (protein, UniProt P19823 55-702, looked up)
Inter-alpha-trypsin inhibitor …: SLPGESEEMMEEVDQVTLYSYKVQSTITSRMATTMIQSKVVNNSPQPQNVVFDVQIPKGAFISNFSMTVDGKTFRSSIKEKTVGRALYAQARAKGKTAGLVRSSALDMENFRTEVNVLPGAKVQFELHYQEVKWRKLGSYEHRIYLQPGRLAKHLEVDVWVIEPQGLRFLHVPDTFEGHFDGVPVISKGQQKAHVSFKPTVAQQRICPNCRETAVDGELVVLYDVKREEKAGELEVFNGYFVHFFAPDNLDPIPKNILFVIDVSGSMWGVKMKQTVEAMKTILDDLRAEDHFSVIDFNQNIRTWRNDLISATKTQVADAKRYIEKIQPSGGTNINEALLRAIFILNEANNLGLLDPNSVSLIILVSDGDPTVGELKLSKIQKNVKENIQDNISLFSLGMGFDVDYDFLKRLSNENHGIAQRIYGNQDTSSQLKKFYNQVSTPLLRNVQFNYPHTSVTDVTQNNFHNYFGGSEIVVAGKFDPAKLDQIESVITATSANTQLVLETLAQMDDLQDFLSKDKHADPDFTRKLWAYLTINQLLAERSLAPTAAAKRRITRSILQMSLDHHIVTPLTSLVIENEAGDERMLADAPPQDPSCCSGALYYGSKVVPDSTPSWANPSPTPVISMLAQGSQVLESTPPPHVMRVEND
B2: Complement C1r subcomponent: plasma protein bound to fibrils (protein, UniProt P00736 18-705, looked up)
Complement C1r subcomponent: SIPIPQKLFGEVTSPLFPKPYPNNFETTTVITVPTGYRVKLVFQQFDLEPSEGCFYDYVKISADKKSLGRFCGQLGSPLGNPPGKKEFMSQGNKMLLTFHTDFSNEENGTIMFYKGFLAYYQAVDLDECASRSKSGEEDPQPQCQHLCHNYVGGYFCSCRPGYELQEDTHSCQAECSSELYTEASGYISSLEYPRSYPPDLRCNYSIRVERGLTLHLKFLEPFDIDDHQQVHCPYDQLQIYANGKNIGEFCGKQRPPDLDTSSNAVDLLFFTDESGDSRGWKLRYTTEIIKCPQPKTLDEFTIIQNLQPQYQFRDYFIATCKQGYQLIEGNQVLHSFTAVCQDDGTWHRAMPRCKIKDCGQPRNLPNGDFRYTTTMGVNTYKARIQYYCHEPYYKMQTRAGSRESEQGVYTCTAQGIWKNEQKGEKIPRCLPVCGKPVNPVEQRQRIIGGQKAKMGNFPWQVFTNIHGRGGGALLGDRWILTAAHTLYPKEHEAQSNASLDVFLGHTNVEELMKLGNHPIRRVSVHPDYRQDESYNFEGDIALLELENSVTLGPNLLPICLPDNDTFYDLGLMGYVSGFGVMEEKIAHDLRFVRLPVANPQACENWLRGKNRMDVFSQNMFCAGHPSLKQDACQGDSGGVFAVRDPNTDRWVATGIVSWGIGCSRGYGFYTKVLNYVDWIKKEMEEED
B3: Ig α-1 chain C region: plasma/CSF protein bound to fibrils (protein, UniProt P01876 1-398, looked up)
Immunoglobulin heavy constant …: ASPTSPKVFPLSLCSTQPDGNVVIACLVQGFFPQEPLSVTWSESGQGVTARNFPPSQDASGDLYTTSSQLTLPATQCLAGKSVTCHVKHYTNPSQDVTVPCPVPSTPPTPSPSTPPTPSPSCCHPRLSLHRPALEDLLLGSEANLTCTLTGLRDASGVTFTWTPSSGKSAVQGPPERDLCGCYSVSSVLPGCAEPWNHGKTFTCTAAYPESKTPLTATLSKSGNTFRPEVHLLPPPSEELALNELVTLTCLARGFSPKDVLVRWLQGSQELPREKYLTWASRQEPSQGTTTFAVTSILRVAAEDWKKGDTFSCMVGHEALPLAFTQKTIDRLADWQMPPPYVVLDLPQETLEEETPGANLWPTTITFLTLFLLSLFYSTALTVTSVRGPSGNREGPQY

Legend:
αSN fibrils [1] = target: T1, αSN fibrils (Homo sapiens, UniProt P37840); assay: Fibril incubation with plasma, quantitative MS/MS of bound proteins; assay type: binding; set-up: key to Identification status of plasma protein bound: αSN: *: Identified, but not quantified; —: Not identified in any of the samples; settings: for Identification status of plasma protein bound: αSN: symbol cells
Experimental: (§1) Plasma and CSF solutions were centrifuged (40,000 g, 20 min) to remove any aggregates. The protein concentration was determined using 280 nm absorbance assuming 1 Abs = 1 mg/mL. […] Control samples (without fibril material) were prepared similarly. All samples were incubated at room temperature for one hour under gentle agitation. Fibrils and fibril-bound proteins were pelleted by centrifugation at 17,000 g for 30 minutes. The supernatant (175 μL) was removed and the aggregate was re-suspended in 175 μL PBS and pelleted again before further preparation for gel analysis and spin-filter assisted digest for quantitative MS/MS.
(§2) The fibril-protein pellets were transferred to spin-filters (0.22 μm), washed twice in PBS (100 μL) and once in 1 M NaCl (100 μL). The fibrils and fibril-bound proteins were dissolved by one-hour incubation in 100 μL 6 M guanidinium chloride followed by elution from the spin-filter. The eluted proteins were loaded onto a 3 kDa MWCO filter unit for filter-assisted unfolding, reduction, alkylation, and trypsin digestion. In brief, samples were washed twice in 8 M urea, once in 8 M urea with 50 mM DTT, once in 8 M urea with 50 mM iodoaceteamide, and twice in 8 M Urea. The filter units were dried by centrifugation (14,000 g in 30 minutes) after every addition. Trypsin digestion was carried out with 0.25 μg sequencing grade trypsin from Sigma Aldrich in 50 mM ammonium bicarbonate overnight at 37 °C. The tryptic peptides were collected by centrifugation, acidified with TFA (0.1%) and micro-purified using POROS R2 column material (Applied Biosystems) packed in P200 pipette tips (Sarstedt).
(§3) LC-MS/MS analyses were performed on an EASY-nLC II system (Thermo Fisher Scientific) connected to a TripleTOF 5600+ mass spectrometer (Sciex) equipped with a NanoSpray III source (Sciex) and operated under Analyst TF 1.6.0 control.
(§4) The micro-purified tryptic peptides were dissolved in 0.1% formic acid, injected and trapped on an in-house packed trap column (2 cm × 100 μm I.D) with RP ReproSil-Pur C18-AQ 3 μm resin (Dr. Maisch GmbH). Peptides were eluted from the trap column and separated on a 15 cm analytical column (75 μm i.d.) packed in-house in a pulled emitter with RP ReproSil-Pur C18-AQ 3 μm resin (Dr. Maisch GmbH). Elution from the analytical column was performed with a linear gradient from 5% to 35% phase B (90% acetonitrile with 0.1% formic acid) over 20 min for protein identification and 50 min for quantitative analysis, respectively.
(§5) All samples were analysed three times, yielding nine MS/MS experiments for each fibril for both plasma and CSF. For the area-based extracted ion chromatogram (XIC) quantification, the acquisition method was set up as an information-dependent acquisition (IDA) experiment collecting up to 25 MS/MS spectra in each 1.6 sec cycle using an exclusion window of 6 sec.
(§6) XIC quantification was based on the average ion intensity of the three most abundant peptides for each protein. Only proteins quantified in at least four out of nine MS/MS experiments per fibril were included in the quantification. The total ion scores were visualized after grouping the proteins according to function (Figure S11).
(§7) For each MS/MS experiment, the ion intensities of the individual proteins were normalized to the total ion intensity of that MS/MS experiment to achieve a relative protein composition. The contribution of each protein was averaged over all nine MS/MS experiments (Tables 1 and 2).

Ab2 fibrils [2] = test system: T2, Ab2 fibrils; assay: as above; assay type: binding, human; settings: 50:1 w/w plasma protein:fibril
T2 construct: Two structurally distinct fibrils of the Aβ(1–40) peptide associated with AD
Experimental: as §1, §2, §3, §4, §5, §6, §7

Ab1 fibrils [3] = test system: T3, Ab1 fibrils; assay: as above; assay type: binding, human; settings: 50:1 w/w plasma protein:fibril
T3 construct: Synthetic amyloid β peptide 1–40 was purchased from Caslo Aps (Lyngby, Denmark); purchased Caslo Aps (Lyngby, Denmark); host or cells: synthetic peptide
Experimental: Plasma and CSF solutions were centrifuged (40,000 g, 20 min) to remove any aggregates. The protein concentration was determined using 280 nm absorbance assuming 1 Abs = 1 mg/mL. […] Control samples (without fibril material) were prepared similarly. All samples were incubated at room temperature for one hour under gentle agitation. Fibrils and fibril-bound proteins were pelleted by centrifugation at 17,000 g for 30 minutes. The supernatant (175 μL) was removed and the aggregate was re-suspended in 175 μL PBS and pelleted again before further preparation for gel analysis and spin-filter assisted digest for quantitative MS/MS.
as §2, §3, §4, §5, §6, §7

FAS4-AD aggregates [4] = test system: T4, FAS4-AD aggregates; assay: as above; assay type: binding, human; set-up: key to Identification status of plasma protein bound: FAS4-AD: *: Identified, but not quantified; —: Not identified in any of the samples; settings: for Identification status of plasma protein bound: FAS4-AD: symbol cells
T4 construct: aggregates of a mutated version of the FAS1-4 domain of TGFBIp
Experimental: as §1, §2, §3, §4, §5, §6, §7

glucagon fibrils [5] = target: T5, glucagon fibrils (Homo sapiens, UniProt P01275); assay: as above; assay type: binding; settings: 50:1 w/w plasma protein:fibril
T5 construct: fibrils of the peptide hormone glucagon
Experimental: as §1, §2, §3, §4, §5, §6, §7

C-36 fibrils [6] = target: T6, C-36 fibrils (Homo sapiens, UniProt P01009); assay: as above; assay type: binding; settings: 50:1 w/w plasma protein:fibril
T6 construct: the 36 residue C-terminal fragment of α1-antitrypsin (C-36)
Experimental: as §1, §2, §3, §4, §5, §6, §7

glucagon fibrils [7] = target: T5, glucagon fibrils; assay: Fibril incubation with CSF, quantitative MS/MS of bound proteins; assay type: binding; settings: 4:1 w/w CSF protein:fibril
FAS4-AD aggregates [8] = test system: T4, FAS4-AD aggregates; assay: as above; assay type: binding, human; set-up: key to Identification status of CSF protein bound: FAS4-AD: *: Identified, but not quantified; —: Not identified in any of the samples; settings: symbol cells
C-36 fibrils [9] = target: T6, C-36 fibrils; assay: as above; assay type: binding; settings: 4:1 w/w CSF protein:fibril
Ab1 fibrils [10] = test system: T3, Ab1 fibrils; assay: as above; assay type: binding, human; set-up: key to Identification status of CSF protein bound: Ab1: *: Identified, but not quantified; —: Not identified in any of the samples; settings: symbol cells
αSN fibrils [11] = target: T1, αSN fibrils; assay: as above; assay type: binding; set-up: key to Identification status of CSF protein bound: αSN: *: Identified, but not quantified; —: Not identified in any of the samples; settings: symbol cells
Experimental: as §1, §2, §3, §4, §5, §6, §7

Ab2 fibrils [12] = test system: T2, Ab2 fibrils; assay: as above; assay type: binding, human; set-up: key to Identification status of CSF protein bound: Ab2: *: Identified, but not quantified; —: Not identified in any of the samples; settings: symbol cells

T6 sequence (P01009 383-418 limits assumed): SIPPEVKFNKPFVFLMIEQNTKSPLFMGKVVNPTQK
T5 sequence (P01275 53-81 limits assumed): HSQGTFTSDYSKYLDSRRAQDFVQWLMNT

Molecule | Identification status of plasma protein bound: αSN (αSN fibrils [1]) | Relative composition of plasma proteins bound: Ab2 (Ab2 fibrils [2]) | Relative composition of plasma proteins bound: Ab1 (Ab1 fibrils [3]) | Identification status of plasma protein bound: FAS4-AD (FAS4-AD aggregates [4]) | Relative composition of plasma proteins bound: Glucagon (glucagon fibrils [5]) | Relative composition of plasma proteins bound: C-36 (C-36 fibrils [6]) | Relative composition of plasma proteins bound: αSN (αSN fibrils [1]; 50:1 w/w plasma protein:fibril) | Relative composition of CSF proteins bound: Glucagon (glucagon fibrils [7]) | Identification status of CSF protein bound: FAS4-AD (FAS4-AD aggregates [8]) | Relative composition of CSF proteins bound: C-36 (C-36 fibrils [9]) | Identification status of CSF protein bound: Ab1 (Ab1 fibrils [10]) | Relative composition of plasma proteins bound: FAS4-AD (FAS4-AD aggregates [4]; 50:1 w/w plasma protein:fibril) | Identification status of CSF protein bound: αSN (αSN fibrils [11]) | Identification status of CSF protein bound: Ab2 (Ab2 fibrils [12])
B1 | * | 0.1 ± 0.0 % of total protein | 0.1 ± 0.0 % of total protein | — | 2.7 ± 0.2 % of total protein | 0.3 ± 0.1 % of total protein |  |  |  |  |  |  |  | 
B2 | * | 0.4 ± 0.1 % of total protein | 0.2 ± 0.0 % of total protein | — | 0.1 ± 0.0 % of total protein | 0.3 ± 0.1 % of total protein |  |  |  |  |  |  |  | 
B3 |  | 1.3 ± 0.3 % of total protein | 1.3 ± 0.1 % of total protein |  | 1.7 ± 0.0 % of total protein | 1.4 ± 0.4 % of total protein | 0.9 ± 0.3 % of total protein | 0.2 ± 0.1 % of total protein | — | 0.5 ± 0.1 % of total protein | * | 3.9 ± 1.6 % of total protein | — | *

Source: paper PMC6405930, “Conservation of the Amyloid Interactome Across Diverse Fibrillar Structures” (Scientific Reports, 2019)
